Laboratory results: paper PMC5360024, “The Alzheimer’s disease risk factors apolipoprotein E and TREM2 are linked in a receptor signaling pathway” (Journal of Neuroinflammation, 2017)

What was measured:
Conditions in all cases: both partners purified
[1] = biological target: T1, Recombinant human TREM2 (human, UniProt Q9NZC2 19-174); assay: ELISA; competition: human TREM2 (40 nM) coated; 6 nM ApoE ε3 with 0-6 μM ApoE-mim149 or scrambled peptide, 1 h at RT; bound full-length ApoE detected with polyclonal anti-ApoE; one site-fit Ki
T1 construct: Triggering receptor expressed on myeloid cells 2 (TREM2), human, recombinant; As I recall, this catalogue item is the extracellular domain with a C-terminal His tag; also called triggering receptor expressed on myeloid cells 2; hTREM2; source: bought: Sino Biological Inc. (#11084-H08H)
T1 sequence (looked up): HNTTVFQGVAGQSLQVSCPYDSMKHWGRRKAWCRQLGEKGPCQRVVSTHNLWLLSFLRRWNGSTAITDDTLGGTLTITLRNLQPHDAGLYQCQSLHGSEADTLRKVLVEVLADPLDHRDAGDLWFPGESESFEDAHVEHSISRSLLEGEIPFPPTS

[2] = biological target: T1, Recombinant human TREM2; assay: ELISA; competition: human TREM2 (40 nM) coated; 6 nM ApoE ε4 with 0-6 μM ApoE-mim149 or scrambled peptide, 1 h at RT; bound full-length ApoE detected with polyclonal anti-ApoE; one site-fit Ki
[3] = biological target: T1, Recombinant human TREM2; assay: ELISA; competition: human TREM2 (40 nM) coated; 6 nM ApoE ε2 with 0-6 μM ApoE-mim149 or scrambled peptide, 1 h at RT; bound full-length ApoE detected with polyclonal anti-ApoE; one site-fit Ki

B1: ApoE-mimetic peptide corresponding to amino acids 130–149 (peptide)
peptide: Ac-TEELRVRLASHLRKLRKRLL-NH2
notes: also called ApoE-mim149; source: synthetic peptide, bought: GenScript
B1 was tested, and the Ki [1] was 475 nM, the Ki [2] was 1540 nM and the Ki [3] was 827 nM.
